Laboratory results taken from the nanobody polyreactivity screen of Harvey et al. (2022).

Test: yeast display, Sf9 membrane polyspecificity reagent, FACS + sequencing; frameworks hold sequencing errors
Method in brief: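 A synthetic nanobody library was expressed on Saccharomyces cerevisiae BJ5465 by galactose induction for 36–48 hours. The library was stained for 1 hour at 4 °C with 10% biotinylated, detergent-solubilized Sf9 membrane reagent and enriched with streptavidin microbeads before FACS. Low and high (top ~1%) gates were set on anti-HA fluorescence for expression and streptavidin fluorescence for reagent binding, and each polyreactivity label reflects the gate of origin.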

QVQLVESGGGLVQAGGSLRLSCAASGSTFRRYAMGWYRQAPGKEREISTSDGSTYYADSVKGRFTISRDNAKNTVYLQMNSLKPEDTAVYYCAADGYRQLIEDITDDYWGQGTQVTVSS
polyreactivity (PSR sort gate): low polyreactivity

QVQLVESGGGLVQAGGSLRLSCAASGSTFRRYAMGWYRQAPGKERELVAAITSTDVNTYYADSVKGRFTISRDNAKNTVYFQMNSLKPEDTAVYYCAAVYLGYYGVSDMEYWGQGTQVTVSS
polyreactivity (PSR sort gate): high polyreactivity

QVQLVESGGGLVQAGGSLRLSCAASGSTFRRYPMGGYRQAPGTERELVAGISSGGTTYYADSVKGRFTISRDNAKNSVYLQMNSLKPEDTAVYYCAKVLYLRSAQAYYYWGQGTQVTVSS
polyreactivity (PSR sort gate): high polyreactivity

QVQLVESGGGLVQAGGSLRLSCAASGSTFRSNAMGWYRQAPGKERELVAAISRRGGSTYYADSVKGRFTISRDNAKNTVDLQMNSLKPEDTAVYYCAKGYIGFPISSFLYDYWGQGTQVTVSS
polyreactivity (PSR sort gate): high polyreactivity

QVQLVESGGGLVQAGGSLRLSCAASGSTFRSYTMGWYRQAPGKERELVADINGTGGSTYYADSVKGRFTISRDNAKNTVYLQMNSLKPEDTAVYYCAADGYFRTVTSGWALRMGYWGQGTQVTVSS
polyreactivity (PSR sort gate): high polyreactivity

QVQLVESGGGLVQAGGSLRLSCAASGSTFRTYAMGWYRQAPGKEREFVAAIRYNGGSTYYADSVKGRFTISLDNAKNTVYLQMNSLKPEDTAVYYCAAATYYYRVSWLWYYLDDYWGQGTQVTVSS
polyreactivity (PSR sort gate): high polyreactivity

QVQLVESGGGLVQAGGSLRLSCAASGSTFRVNAMGWYRQAPGKEREFVATIRGGGVRTYYADSVKGRFTISRDNAKNTVYLQMNSLKPEDTAVYYCAVAGGTPGAYRRFNYWGQGTQVTVSS
polyreactivity (PSR sort gate): high polyreactivity

QVQLVESGGGLVQAGGSLRLSCAASGSTFRVNAMGWYRQAPGKEREFVATIRGGGVRTYYADSVKGRFTISRDNAKNTVYLQMNSLKPEDTAVYYCNRKFYWRRDYWGQGTQVTVSS
polyreactivity (PSR sort gate): high polyreactivity

QVQLVESGGGLVQAGGSLRLSCAASGSTFRVNVMGWYRQAPGKERELVAAITTSGGSTYYADSVKGRFTISRDNAKNTVYLQMNSLKPEDTAVYYCAAEGGFSPQPYNLYYATPREDYWGQGTQVTVSS
polyreactivity (PSR sort gate): low polyreactivity

QVQLVESGGGLVQAGGSLRLSCAASGSTFRVYAMGWYRPAPGKVRELVAAISGSGTSTYYADSVKGRFTISRDNAKNTVYLQMNSLKPEDTAVYYCATGKNYWRGYEYWGQGTQVTVSS
polyreactivity (PSR sort gate): high polyreactivity

QVQLVESGGGLVQAGGSLRLSCAASGSTFRVYAMGWYRQAPGKERELVAAITKSGGSTYYADSVKGRFTISRDNAKNTVYLQMNSLKPEDTEVYYCAADKSWTRYGFYWGQGTQLTVSS
polyreactivity (PSR sort gate): high polyreactivity

QVQLVESGGGLVQAGGSLRLSCAASGSTFRVYAMGWYRQAPGNERELVAAISLSGGRTYYADSVKGRFTISRDNAKNTVYLQMNSLKPEDTAVYYCARRYRDYGRYGYWGQGTQVTVSS
polyreactivity (PSR sort gate): high polyreactivity

QVQLVESGGGLVQAGGSLRLSCAASGSTFRWNAMGWYRQAPGKERELVAAITRSGGSTYYADSVKGRFTISRDNAKNTVYLQMNSLKPEDTAVYYCAAGYYTARRIRSDYWGQGTQVTVSS
polyreactivity (PSR sort gate): high polyreactivity

QVQLVESGGGLVQAGGSLRLSCAASGSTFRWNTMGWYIQAPGKERELVAAISYSGGITYYADSVKGRFTISRDNAKNTVYLQMNSLKPEDTAVYYCYATRVRGWYVTRYYYWGQGSQVTVSS
polyreactivity (PSR sort gate): high polyreactivity

QVQLVESGGGLVQAGGSLRLSCAASGSTFRWYAMGWYRQAPGKERDLVAAISARGTSTYYADSVKGRFTISRDNAKNTVYLQMNSLKPEDTAVSYCAAPQQQSWTYDGRYGYWGQGTQVTVSS
polyreactivity (PSR sort gate): high polyreactivity

QVQLVESGGGLVQAGGSLRLSCAASGSTFRWYAMGWYRQAPGKERELVAAIRRIGSRTYADSVKGRFTISRDNAKNTVYLQMNSLKPEDTAVYYCATRYKYTGYDYWGQGTQVTVSS
polyreactivity (PSR sort gate): high polyreactivity

QVQLVESGGGLVQAGGSLRLSCAASGSTFRWYAMGWYRQAPGKERELVAAIRYTGGSTYYADSVKGRFTISRDNAKNTVYLQMNSLKPEDTAVYYCNARTFRRYVSYSRTYVGYDYWGQGTQVTVSS
polyreactivity (PSR sort gate): high polyreactivity

QVQLVESGGGLVQAGGSLRLSCAASGSTFRWYAMGWYRQAPGKERELVAAITAGGRTYYADSVKGRFTISRDNAKNTVYLQMTSLKPEDTAVYYCNALGKPTWYATTYDYWGQGTQVTVSS
polyreactivity (PSR sort gate): high polyreactivity

QVQLVESGGGLVQAGGSLRLSCAASGSTFRYIAMGWYRQAPGKERELVAAISRGGSTNYADSVKGRFTISRDNAKNSVYLQMNSLKPEDTAVYYCAASGTRRGTAVWRVKPGDYWGQGTQVTVSS
polyreactivity (PSR sort gate): high polyreactivity

QVQLVESGGGLVQAGGSLRLSCAASGSTFRYKTMGWYRQAPGKERELVAAISSRGTNTYYADSVKGRFTISRDNAKNTVYLQMNSLKPDDPAVYYCDTGYYVRMDWGQGTQVTVSS
polyreactivity (PSR sort gate): high polyreactivity

QVQLVESGGGLVQAGGSLRLSCAASGSTFRYNAMGWYRQAPGKERELVAVISWGGGRTYYADSVKGRFTISRDNAKNTVYLQMNSLKPEDTAVYYCNVYFGRIVARDYGYWGQGTQVTVSS
polyreactivity (PSR sort gate): high polyreactivity

QVQLVESGGGLVQAGGSLRLSCAASGSTFRYNAMGWYRQAPGKEREVVAAISRIGGTTYADSVKGRFTISRDNAKNTVYFQMNSLKPEDTAVYYCARANWGYYGPEYGYWGQGTQVTVSS
polyreactivity (PSR sort gate): high polyreactivity

QVQLVESGGGLVQAGGSLRLSCAASGSTFRYNAMGWYRQARGKERELVGGITSSGGTYAHSVKGRFTISRDNAKNTVYLQMNSLKPEDTAVYYCNALGVQDEFDYWGQGTQVTVSS
polyreactivity (PSR sort gate): low polyreactivity

QVQLVESGGGLVQAGGSLRLSCAASGSTFRYNARGWYRQAPGKERELVADIRRSGGSTYYADSVKGRFTISRDNAKNTVYLQMNSLKPEDTAVYYCNAAVSRLYYHSYSYRSYYYWGQGTQVTVSS
polyreactivity (PSR sort gate): high polyreactivity

QVQLVESGGGLVQAGGSLRLSCAASGSTFRYNDMGWYRQAPGKERELVADITSGGGTYYADSVKGRFTISRDNAKNTVYLQMNSLKPEDTAVYYCNADGFYDYPGWYGLVYWYDYWGQGTQVTVSS
polyreactivity (PSR sort gate): high polyreactivity

QVQLVESGGGLVQAGGSLRLSCAASGSTFRYNLMGWYRQAPGKERELVAAISAVGSTYYADSVKGRFTISRDNAKNTVYLQMNSLKAEDTAVYYCAASYDWRAYRRDFYYWLTGDYWGQGTQVTVSS
polyreactivity (PSR sort gate): low polyreactivity

QVQLVESGGGLVQAGGSLRLSCAASGSTFRYNVMGWYRQAPGKERELVATISYSGGSTNYADSVKGRFTISRDNAKNSVYLEIKSLKPVDTAVYYCAARYLYPFYGYWWYDYWGQGTQVTVSS
polyreactivity (PSR sort gate): high polyreactivity

QVQLVESGGGLVQAGGSLRLSCAASGSTFRYYAMGWYRPAPGKERELVAVISTSGNTYYADSVKGRFTISRDNAKNTVYLQMNSLKPEDTAVYYCAARGVGGQISQEYDYWGQGTQVTVSS
polyreactivity (PSR sort gate): low polyreactivity

QVQLVESGGGLVQAGGSLRLSCAASGSTFRYYAMGWYRQAPGKEREFVAAITASGVTTYYADSVKGRFTISRDNAKNTVYLQMNSLKPEDTAVYYCAARLYYNYRGRYNYWGQGTQVTVSS
polyreactivity (PSR sort gate): high polyreactivity

QVQLVESGGGLVQAGGSLRLSCAASGSTFRYYAMGWYRQAPGKERELVAAISRSGGSTSYADSVKGRFTISRDNAKNTVYLQMNSLKPEDTAVYSCAARIYRKYYRYDYWGQGTQVTVSS
polyreactivity (PSR sort gate): high polyreactivity

QVQLVESGGGLVQAGGSLRLSCAASGSTFRYYAMGWYRQAPGKERELVAAISTSGGRTYYADSVKGRFTISRDNAKNTVYLQMNSLKPEDTAVYYCNARESRGYSDQTWKYYYWGQGTQVTVSS
polyreactivity (PSR sort gate): high polyreactivity

QVQLVESGGGLVQAGGSLRLSCAASGSTFRYYAMGWYRQAPGKERELVAAISWSGGSTYYADSVKGRFTISRDNAKNTVYLQMNSLKPEDTEVYYCNKAWFPYYYYRFDYWGQGTQVTVSS
polyreactivity (PSR sort gate): high polyreactivity

QVQLVESGGGLVQAGGSLRLSCAASGSTFRYYAMGWYRQAPGKERELVASITWSGGSTYYADSVKGRFTISRDNAKNTVYLQMNSLNPEDTAVYYCAARQYIGSPPHRRRFDYWGKGTQVTVSS
polyreactivity (PSR sort gate): high polyreactivity

QVQLVESGGGLVQAGGSLRLSCAASGSTFRYYAMGWYRQAPGKERELVAVISASGGTTYYADSVKGRFTISRDNAKNTVYLQMNSLKPEDTAVYYCAAREGWGFYYWGQGTQVTVSS
polyreactivity (PSR sort gate): high polyreactivity

QVQLVESGGGLVQAGGSLRLSCAASGSTFRYYSMGWYRQAPGKERELVAVISKSGARTYYADSVKGRFTISRDNAKNTVYLQMNSLQPEETSVYYCNAVFKLDSHYAMCYWGQGTQVTVSS
polyreactivity (PSR sort gate): high polyreactivity

QVQLVESGGGLVQAGGSLRLSCAASGSTFRYYVMGWYRPAPGKERELVAAITRGGSTNYADSVKGRFTISRDNAKNTVYLQMNSLKPEDTAVYYCAARGGWKRPFGYQLQYDYWGQGTQVTVSS
polyreactivity (PSR sort gate): high polyreactivity

QVQLVESGGGLVQAGGSLRLSCAASGSTFRYYVMGWYRQAPGKERELVAAISSSGGSTYYADSVKGRFTISRDIAKNTVYLQMNSLKPEDTAVYYCARDKGYVSYRYNYWGQGTQVTVSS
polyreactivity (PSR sort gate): high polyreactivity

QVQLVESGGGLVQAGGSLRLSCAASGSTFRYYVMGWYSQSPGKERELVAGISYRGGTTYYADSVKGRFTISRDNAKNTVYLQMYILKPEDTAVYYCNAETAAAQASYDRLYVLLDYWGQGTQVTVSS
polyreactivity (PSR sort gate): low polyreactivity

QVQLVESGGGLVQAGGSLRLSCAASGSTFSANPMGWYRQAPGKERELVASISRRGGSTYYADSVKGRFTISRDNAKNTVYLQMNNLKPEDTAVYYCAAYYEYRRDYWGQGTQVTVSS
polyreactivity (PSR sort gate): high polyreactivity

QVQLVESGGGLVQAGGSLRLSCAASGSTFSAYAMGGYRQAPGKERELVAVITSGASTYYADSVKGRFTISRDNAKNTVYLQMNSLKPEDTAVYYCAAYGYSYRGWRMDYWGQGTQVTVSS
polyreactivity (PSR sort gate): high polyreactivity

QVQLVESGGGLVQAGGSLRLSCAASGSTFSDNAMGWYRQAPGKERELVAANTSGGSTYYADSVKGRFTISRDNAKNTVYLQMNSLKPEDTAVYYCAADYWGQGTQVTVSS
polyreactivity (PSR sort gate): low polyreactivity

QVQLVESGGGLVQAGGSLRLSCAASGSTFSDYPMGWYRQAPGKERELVAAISDSGSGTYYADSVKGRFTISRDNAKNTVYLQMNSLKPEDTAVYYCNTDPRFAMDWGQGTQVTVSS
polyreactivity (PSR sort gate): low polyreactivity

QVQLVESGGGLVQAGGSLRLSCAASGSTFSDYTMGWYRQAPGKERELVAAITTIGGSTYYADSVKGRFTISRDNAKNTVYLQMNSLKPEDTAVYYCAASYYYPFEYYYWGQGTQVTVSS
polyreactivity (PSR sort gate): low polyreactivity
